# Test results as given in the Human Domainome abundance scans (Beltran et al. 2025).
# ± gives the uncertainty stated by the source.
# B1: Transitional endoplasmic reticulum ATPase, residues 26 to 106; numbered along this chain, P55072 (parent)
# chain: LIVDEAINEDNSVVSLSQPKMDELQLFRGDTVLLKGKKRREAVCIVLSDDTCSDEKIRMNRVVRNNLRVRLGDVISIQPCP
# Variants of: B1
# Test: abundance fitness (aPCA) (normalised: wild type 0, dead -1); higher = more abundant; growth selection in yeast, the domain comes from the species named
# Conditions: Homo sapiens
row,Variant,abundance fitness
1,Q18T,-0.148 ± 0.096
2,Q18S,-0.052 ± 0.069
3,Q18K,-0.037 ± 0.19
4,Q18Y,-0.23 ± 0.15
5,Q18L,-0.049 ± 0.052
6,Q18W,-0.206 ± 0.1
7,Q18M,0.249 ± 0.13
8,Q18N,-0.461 ± 0.32
9,Q18F,-0.191 ± 0.074
10,Q18R,-0.046 ± 0.062
11,Q18D,-0.264 ± 0.089
12,Q18V,0.001 ± 0.05
13,Q18H,0.036 ± 0.17
14,Q18C,-0.074 ± 0.067
15,Q18I,-0.088 ± 0.076
16,Q18A,-0.003 ± 0.072
17,Q18G,-0.034 ± 0.043
18,Q18P,-0.078 ± 0.092
19,S12D,0.019 ± 0.066
20,S12Q,0.093 ± 0.068
21,S12K,-0.035 ± 0.065
22,S12V,-0.067 ± 0.043
23,S12F,-0.036 ± 0.095
24,S12C,-0.056 ± 0.07

row,Variant,abundance fitness
1,S12G,0.029 ± 0.045
2,S12A,0.035 ± 0.048
3,S12M,0.088 ± 0.093
4,S12L,-0.019 ± 0.053
5,S12I,-0.166 ± 0.11
6,S12R,-0.038 ± 0.04
7,S12N,-0.086 ± 0.083
8,S12T,0.082 ± 0.082
9,S12P,-0.126 ± 0.065
10,S12E,0.039 ± 0.062
11,S12Y,-0.119 ± 0.099
12,A6P,0.024 ± 0.087
13,A6E,-0.107 ± 0.059
14,A6Y,-0.404 ± 0.21
15,A6V,-0.133 ± 0.037
16,A6Q,0.007 ± 0.073
17,A6S,0.029 ± 0.061
18,A6I,0.002 ± 0.12
19,A6C,-0.048 ± 0.077
20,A6F,0.093 ± 0.085
21,A6D,-0.054 ± 0.09
22,A6N,-0.004 ± 0.22
23,A6K,-0.154 ± 0.079
24,A6W,-0.006 ± 0.064

row,Variant,abundance fitness
1,A6R,-0.084 ± 0.053
2,A6G,0.024 ± 0.044
3,A6L,0.092 ± 0.051
4,A6T,0.046 ± 0.053
5,A6H,0.001 ± 0.084
6,E5T,-0.1 ± 0.058
7,E5I,-0.045 ± 0.048
8,E5Y,0.048 ± 0.089
9,E5H,-0.224 ± 0.1
10,E5M,0.042 ± 0.063
11,E5W,-0.051 ± 0.044
12,E5G,-0.032 ± 0.051
13,E5L,-0.107 ± 0.041
14,E5V,-0.068 ± 0.041
15,E5N,-0.018 ± 0.12
16,E5P,-0.149 ± 0.051
17,E5D,0.003 ± 0.11
18,E5Q,-0.124 ± 0.12
19,E5C,-0.013 ± 0.054
20,E5F,0.016 ± 0.084
21,E5S,0.029 ± 0.052
22,N11E,0.031 ± 0.069
23,N11I,-0.024 ± 0.038
24,N11A,-0.105 ± 0.048

row,Variant,abundance fitness
1,N11S,0.039 ± 0.051
2,N11M,-0.029 ± 0.072
3,N11R,-0.042 ± 0.038
4,N11V,-0.067 ± 0.045
5,N11K,-0.084 ± 0.12
6,N11Y,-0.079 ± 0.12
7,N11H,0.103 ± 0.089
8,N11G,-0.067 ± 0.04
9,N11F,-0.208 ± 0.18
10,N11C,-0.091 ± 0.059
11,N11L,-0.007 ± 0.053
12,N11P,-0.011 ± 0.071
13,N11T,-0.028 ± 0.066
14,N11W,-0.26 ± 0.069
15,I2L,-0.115 ± 0.055
16,I2M,-0.102 ± 0.075
17,I2N,-0.059 ± 0.14
18,I2F,-0.103 ± 0.051
19,I2T,0.024 ± 0.083
20,I2Y,-0.418 ± 0.22
21,I2D,-0.806 ± 0.17
22,I2G,-0.357 ± 0.066
23,I2S,-0.196 ± 0.065
24,I2V,-0.058 ± 0.068

row,Variant,abundance fitness
1,I2K,-0.006 ± 0.11
2,I2P,-0.891 ± 0.27
3,I2R,-0.162 ± 0.049
4,I2Q,-0.164 ± 0.097
5,I2C,-0.162 ± 0.078
6,I2W,-0.302 ± 0.11
7,I2A,-0.45 ± 0.12
8,I2E,-0.167 ± 0.11
9,S15W,-0.091 ± 0.092
10,S15G,0.034 ± 0.032
11,S15D,-0.674 ± 0.1
12,S15T,0.004 ± 0.067
13,S15F,0.087 ± 0.11
14,S15R,-0.001 ± 0.038
15,S15M,-0.058 ± 0.079
16,S15I,0.002 ± 0.077
17,S15N,0.08 ± 0.1
18,S15E,0.008 ± 0.076
19,S15P,-0.591 ± 0.097
20,S15V,0.07 ± 0.037
21,S15Y,0 ± 0.095
22,S15Q,0.082 ± 0.053
23,S15C,-0.006 ± 0.066
24,S15H,-0.039 ± 0.09

row,Variant,abundance fitness
1,L1G,-0.662 ± 0.21
2,L1I,0.128 ± 0.14
3,L1Y,-0.582 ± 0.26
4,L1V,-0.003 ± 0.1
5,L1F,0.15 ± 0.13
6,L1S,-0.264 ± 0.075
7,L1K,-0.292 ± 0.31
8,L1M,-0.046 ± 0.16
9,L1R,-0.744 ± 0.23
10,L1T,-0.424 ± 0.13
11,L1C,-0.117 ± 0.21
12,L1A,-0.126 ± 0.11
13,V3A,-0.242 ± 0.066
14,V3G,-0.811 ± 0.088
15,V3C,-0.173 ± 0.13
16,V3W,-0.952 ± 0.17
17,V3I,-0.037 ± 0.13
18,V3L,-0.708 ± 0.12
19,V3K,-0.639 ± 0.23
20,V3M,-0.194 ± 0.093
21,V3E,-0.809 ± 0.17
22,V3T,-0.432 ± 0.097
23,V3F,-0.797 ± 0.21
24,V3Q,-0.891 ± 0.17

row,Variant,abundance fitness
1,V3D,-0.529 ± 0.41
2,V3P,-0.948 ± 0.31
3,V3S,-0.773 ± 0.14
4,V3R,-0.992 ± 0.15
5,D4H,-0.04 ± 0.26
6,D4N,-0.332 ± 0.16
7,D4Y,-0.32 ± 0.28
8,D4R,-0.627 ± 0.062
9,D4F,-0.345 ± 0.11
10,D4K,-0.271 ± 0.13
11,D4M,-0.041 ± 0.077
12,D4Q,-0.179 ± 0.071
13,D4I,0.052 ± 0.12
14,D4V,-0.082 ± 0.048
15,D4E,-0.015 ± 0.095
16,D4W,-0.091 ± 0.08
17,D4T,-0.017 ± 0.061
18,D4C,0.096 ± 0.073
19,D4P,-1.11 ± 0.19
20,D4L,-0.203 ± 0.047
21,D4G,-0.085 ± 0.043
22,D4A,-0.009 ± 0.055
23,D4S,-0.018 ± 0.05
